{"source": "paper PMC6321292", "about": "“Comparative Transcriptomics Analysis for Gene Mining and Identification of a Cinnamyl Alcohol Dehydrogenase Involved in Methyleugenol Biosynthesis from Asarum sieboldii Miq” (Molecules, 2018)", "proteins": {"B1": {"name": "AsCAD5 (Asarum sieboldii) (protein)", "chain": "MSNQSGTDNCLGWAARDPSGILSPHSFSRRSIGSDDVSLKITHCGVCYADVAWTRNKVGDSMYPLVPGHEIVGIVQEVGSDVNRFKIGDHVGVGTYVNSCRECVYCKDKLEVVCQKGPTLTFNSLDVDGTITKGGYSSHIVVNERYCYRIPDGYPLVSAAPLLCAGITVYAPMMRHKMNQPGKSLGVIGLGGLGHMAVKFGKAFGLNVTVFSTSESKKEEALKLLGADRFVISSDKKQMEGVMKSLDFIIDTASGDHPFDPYMALLKTTGILVLVGFPSEVKFNPGSLILGLRTLSGSVTGGTKDTQEMLEFCAANKIYPEIELINIEYINEALERLINREVKYRFVIDIENSLK", "notes": "full ORF 1068 bp (about 355 residues), pMAL-C5X MBP fusion in E. coli Rosetta (DE3), MBP tag removed by Factor Xa, ca. 40 kDa"}}, "experiment_in_all_cases": "purified protein", "assay_type_in_all_cases": "biochemical, Asarum sieboldii", "settings_in_all_cases": "0.5 mM NADPH, 50 mM Tris-HCl pH 7.5, 2 mM DTT, 30 °C", "key": {"purified protein [1]": {"substrate": "COc1cc(/C=C/C=O)ccc1O"}, "purified protein [2]": {"substrate": "COc1cc(/C=C/C=O)cc(OC)c1O"}, "purified protein [3]": {"substrate": "O=C/C=C/c1ccc(O)cc1"}}}
{"protein": "B1", "values": [{"measurement": "Km", "setting": "purified protein [1]", "result": "27.32 ± 6.186", "unit": "µM"}, {"measurement": "Vmax", "setting": "purified protein [1]", "result": 20.5, "unit": "µmol/min/mg"}, {"measurement": "kcat", "setting": "purified protein [1]", "result": 222, "unit": "s⁻¹"}, {"measurement": "kcat/Km", "setting": "purified protein [1]", "result": "8.12e+06", "unit": "M⁻¹ s⁻¹"}, {"measurement": "Km", "setting": "purified protein [2]", "result": "35.02 ± 8.043", "unit": "µM"}, {"measurement": "Vmax", "setting": "purified protein [2]", "result": 26.9, "unit": "µmol/min/mg"}, {"measurement": "kcat", "setting": "purified protein [2]", "result": 291, "unit": "s⁻¹"}, {"measurement": "kcat/Km", "setting": "purified protein [2]", "result": "8.3e+06", "unit": "M⁻¹ s⁻¹"}, {"measurement": "Km", "setting": "purified protein [3]", "result": "45.52 ± 8.888", "unit": "µM"}, {"measurement": "Vmax", "setting": "purified protein [3]", "result": 23, "unit": "µmol/min/mg"}, {"measurement": "kcat", "setting": "purified protein [3]", "result": 249, "unit": "s⁻¹"}, {"measurement": "kcat/Km", "setting": "purified protein [3]", "result": "5.47e+06", "unit": "M⁻¹ s⁻¹"}]}
